Results published in IntAct's records for PubMed 28348268.

B1: HLA class I histocompatibility antigen, alpha chain G (Homo sapiens), P17693-2 (parent)
chain: MVVMAPRTLFLLLSGALTLTETWAGSHSMRYFSAAVSRPGRGEPRFIAMGYVDDTQFVRFDSDSACPRMEPRAPWVEQEGPEYWEEETRNTKAHAQTDRMNLQTLRGYYNQSEANPPKTHVTHHPVFDYEATLRCWALGFYPAEIILTWQRDGEDQTQDVELVETRPAGDGTFQKWAAVVVPSGEEQRYTCHVQHEGLPEPLMLRWKQSSLPTIPIMGIVAGLVVLAAVVTGAAVAAVLWRKKSSD

Variants of: B1
Conditions: with lirb2_human LILRB2, Q8N423
Chain of lirb2_human LILRB2, Q8N423 (Q8N423 whole entry): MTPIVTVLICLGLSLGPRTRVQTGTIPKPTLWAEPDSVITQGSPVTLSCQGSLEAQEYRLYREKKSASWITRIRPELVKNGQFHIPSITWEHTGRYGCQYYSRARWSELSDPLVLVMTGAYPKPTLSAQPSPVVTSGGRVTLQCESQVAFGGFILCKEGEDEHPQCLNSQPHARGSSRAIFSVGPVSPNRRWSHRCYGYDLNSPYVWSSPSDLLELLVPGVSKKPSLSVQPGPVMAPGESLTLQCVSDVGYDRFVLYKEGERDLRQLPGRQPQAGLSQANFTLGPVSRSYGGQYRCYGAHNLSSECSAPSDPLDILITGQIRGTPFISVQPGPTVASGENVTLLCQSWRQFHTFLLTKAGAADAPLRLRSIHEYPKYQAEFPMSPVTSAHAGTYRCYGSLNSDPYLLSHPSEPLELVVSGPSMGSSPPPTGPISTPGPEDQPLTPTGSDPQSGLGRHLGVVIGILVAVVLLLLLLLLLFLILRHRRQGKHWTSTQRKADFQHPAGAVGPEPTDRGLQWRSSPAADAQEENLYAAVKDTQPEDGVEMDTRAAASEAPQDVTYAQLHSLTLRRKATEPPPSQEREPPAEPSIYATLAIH

effect of a mutation on the interaction | Variant
with no effect | C66S
